Reference: paper PMC11408855, “The structure of the SufS–SufE complex reveals interactions driving protected persulfide transfer in iron-sulfur cluster biogenesis” (The Journal of Biological Chemistry, 2024)
Positions count from the first letter of the chain named. Names may count otherwise.

B1: EcSufS, untagged (wild type) (enzyme, Escherichia coli)
chain: MIFSVDKVRADFPVLSREVNGLPLAYLDSAASAQKPSQVIDAEAEFYRHGYAAVHRGIHTLSAQATEKMENVRKRASLFINARSAEELVFVRGTTEGINLVANSWGNSNVRAGDNIIISQMEHHANIVPWQMLCARVGAELRVIPLNPDGTLQLETLPTLFDEKTRLLAITHVSNVLGTENPLAEMITLAHQHGAKVLVDGAQAVMHHPVDVQALDCDFYVFSGHKLYGPTGIGILYVKEALLQEMPPWEGGGSMIATVSLSEGTTWTKAPWRFEAGTPNTGGIIGLGAALEYVSALGLNNIAEYEQNLMHYALSQLESVPDLTLYGPQNRLGVIAFNLGKHHAYDVGSFLDNYGIAVRTGHHCAMPLMAYYNVPAMCRASLAMYNTHEEVDRLVTGLQRIHRLLG
modifications: PLP (pyridoxal 5'-phosphate) cofactor
notes: EcSufS, cysteine desulfurase SufS of Escherichia coli, UniProt P77444; Untagged version used for crystallography and with the EcSufE variants; In samples with cysteine the active site cysteine is thought to carry a persulfide; also called SufSA; SufSB
B2: BODIPY-FL-labeled T116A EcSufE in the C51A/E107C background (natural protein, Escherichia coli)
chain: MALLPDKEKLLRNFLRCANWEEKYLYIIELGQRLPELRDEDRSPQNSIQGAQSQVWIVMRQNAQGIIELQGDSDAAIVKGLIAVVFILYDQMTPQDIVNFDVRPWFCKMALTQHLAPSRSQGLEAMIRAIRAKAAALS
modifications: BODIPY-FL maleimide label (labeling efficiency 60 to 80%)
notes: EcSufE of Escherichia coli, UniProt P76194, with C51A, E107C and T116A; also called T116A SufE; source: E. coli BL21(DE3)Δsuf, pET21, purified, labeled with BODIPY-FL maleimide
B3: BODIPY-FL-labeled R119A EcSufE in the C51A/E107C background (natural protein, Escherichia coli)
chain: B2 chain with A116T, R119A
modifications: BODIPY-FL maleimide label (labeling efficiency 60 to 80%)
notes: EcSufE of Escherichia coli, UniProt P76194, with C51A, E107C and R119A; also called R119A SufE; R119A EcSufE (in double mutant background); source: E. coli BL21(DE3)Δsuf, pET21, purified, labeled with BODIPY-FL maleimide
B4: BODIPY-FL-labeled T116S EcSufE in the C51A/E107C background (natural protein, Escherichia coli)
chain: B2 chain with A116S
modifications: BODIPY-FL maleimide label (labeling efficiency 60 to 80%)
notes: EcSufE of Escherichia coli, UniProt P76194, with C51A, E107C and T116S; also called T116S SufE; source: E. coli BL21(DE3)Δsuf, pET21, purified, labeled with BODIPY-FL maleimide
B5: BODIPY-FL-labeled Q121A EcSufE in the C51A/E107C background (natural protein, Escherichia coli)
chain: B2 chain with A116T, Q121A
modifications: BODIPY-FL maleimide label (labeling efficiency 60 to 80%)
notes: EcSufE of Escherichia coli, UniProt P76194, with C51A, E107C and Q121A; also called Q121A SufE; source: E. coli BL21(DE3)Δsuf, pET21, purified, labeled with BODIPY-FL maleimide
B6: BODIPY-FL-labeled R119K EcSufE in the C51A/E107C background (natural protein, Escherichia coli)
chain: B2 chain with A116T, R119K
modifications: BODIPY-FL maleimide label (labeling efficiency 60 to 80%)
notes: EcSufE of Escherichia coli, UniProt P76194, with C51A, E107C and R119K; also called R119K SufE; source: E. coli BL21(DE3)Δsuf, pET21, purified, labeled with BODIPY-FL maleimide
B7: C51A/E107C EcSufE (unlabeled, crystallised) (natural protein, Escherichia coli)
chain: B2 chain with A116T
notes: EcSufE of Escherichia coli, UniProt P76194, with C51A and E107C; also called SufE C51A/E107C; SufE (C51A, E107C)
B8: BODIPY-FL-labeled Q121E EcSufE in the C51A/E107C background (natural protein, Escherichia coli)
chain: B2 chain with A116T, Q121E
modifications: BODIPY-FL maleimide label (labeling efficiency 60 to 80%)
notes: EcSufE of Escherichia coli, UniProt P76194, with C51A, E107C and Q121E; also called Q121E SufE; source: E. coli BL21(DE3)Δsuf, pET21, purified, labeled with BODIPY-FL maleimide

Tests used:
SufE (Escherichia coli) = SufE (Escherichia coli) (UniProt P76194); assay: fluorescence polarization; conditions: cited from earlier work
[1] = molecular target: the molecule itself; assay: crystal structure; 230 μM SufS, 230 μM SufE (C51A, E107C) and 2 mM Cys; sitting drop vapor diffusion, PEG2000 MME, 0.1 M KSCN, 20 °C
[2] = molecular target: B1; assay: fluorescence polarisation; 100 nM BODIPY-FL-labeled EcSufE titrated with EcSufS; 50 mM Mops pH 8.0, 150 mM NaCl, 0.1 mg/ml bovine serum albumin, 25 °C, 30 min; absence of cysteine; apparent KD; conditions: both partners purified
[3] = molecular target: B1; assay: fluorescence polarisation; 100 nM BODIPY-FL-labeled EcSufE titrated with EcSufS; 50 mM Mops pH 8.0, 150 mM NaCl, 0.1 mg/ml bovine serum albumin, 25 °C, 30 min; presence of 500 μM cysteine; apparent KD; conditions: both partners purified
[4] = molecular target: B1; assay: crystal structure; 230 μM SufS, 230 μM SufE (C51A, E107C) and 2 mM Cys; sitting drop vapor diffusion, PEG2000 MME, 0.1 M KSCN, 20 °C; conditions: both partners purified

Row | Kd [2] [µM] | Kd [3] [µM] | Molecule | other results
1 |  |  | SufS (from UniProt P77444) | Kd (SufE (Escherichia coli)): 5 µM
2 |  |  | B1 | binding result [1]: binds
3 | 2.3 | 0.8 | B2 | 
4 | 0.3 | 0.5 | B3 | 
5 | 2.2 | 3.1 | B4 | 
6 | 5.9 | 3.6 | B5 | 
7 | 1.6 | 0.9 | B6 | 
8 |  |  | B7 | stoichiometry N [4]: 1
9 | 7 | 0.5 | B8 | 
